Here are results for five substances from paper PMC5464768, “ER retention is imposed by COPII protein sorting and attenuated by 4-phenylbutyrate” (eLife, 2017).

Assay [1] deals with Sec24d (full-length, wild type) (H. sapiens) (UniProt O94855).
For assay [2] the target is unchanged. This is another data set of the same source.

Sec24d (full-length, wild type) (H. sapiens), sequence (O94855 whole entry): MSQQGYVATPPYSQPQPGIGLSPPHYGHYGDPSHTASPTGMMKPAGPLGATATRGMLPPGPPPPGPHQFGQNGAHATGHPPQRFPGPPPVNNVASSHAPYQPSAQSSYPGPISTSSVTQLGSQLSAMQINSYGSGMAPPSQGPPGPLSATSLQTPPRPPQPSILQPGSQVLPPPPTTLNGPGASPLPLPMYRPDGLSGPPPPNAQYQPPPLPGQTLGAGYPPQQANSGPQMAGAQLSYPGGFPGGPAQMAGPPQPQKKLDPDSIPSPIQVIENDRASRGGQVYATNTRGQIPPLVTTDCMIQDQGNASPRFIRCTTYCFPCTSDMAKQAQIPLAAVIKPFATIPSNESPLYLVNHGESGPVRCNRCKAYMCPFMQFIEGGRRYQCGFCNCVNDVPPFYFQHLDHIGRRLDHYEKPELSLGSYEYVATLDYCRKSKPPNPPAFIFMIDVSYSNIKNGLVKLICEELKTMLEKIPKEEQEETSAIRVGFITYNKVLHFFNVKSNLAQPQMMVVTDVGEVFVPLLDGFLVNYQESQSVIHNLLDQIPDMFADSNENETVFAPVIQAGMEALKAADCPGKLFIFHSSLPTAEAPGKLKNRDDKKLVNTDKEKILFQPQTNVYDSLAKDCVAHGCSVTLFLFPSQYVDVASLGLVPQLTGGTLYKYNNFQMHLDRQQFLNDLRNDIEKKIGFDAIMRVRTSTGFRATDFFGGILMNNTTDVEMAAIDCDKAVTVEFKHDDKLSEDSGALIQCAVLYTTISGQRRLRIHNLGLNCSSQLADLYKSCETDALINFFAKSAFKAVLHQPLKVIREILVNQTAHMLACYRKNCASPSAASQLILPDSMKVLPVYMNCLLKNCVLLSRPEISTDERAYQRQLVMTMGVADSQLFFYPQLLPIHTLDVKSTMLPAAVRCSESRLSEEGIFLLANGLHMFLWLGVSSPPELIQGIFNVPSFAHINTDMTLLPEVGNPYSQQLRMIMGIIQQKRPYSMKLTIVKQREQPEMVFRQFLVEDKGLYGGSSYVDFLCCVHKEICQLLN
p24β1, sequence (P49020 16-196): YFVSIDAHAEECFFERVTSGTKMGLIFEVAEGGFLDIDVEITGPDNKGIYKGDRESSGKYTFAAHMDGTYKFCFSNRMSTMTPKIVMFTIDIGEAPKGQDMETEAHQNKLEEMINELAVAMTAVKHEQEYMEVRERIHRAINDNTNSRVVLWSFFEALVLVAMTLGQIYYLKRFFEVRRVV

In turn, ERGIC-53 (natural protein) registered a packaging efficiency into COPII vesicles budded with wild-type COPII (Sec23a/24d), amount in vesicle as % of protein present in starting permeabilized cells; CHO-LDLR G544V cells in assay [1] of 4.5%. Besides, the reduction of the packaging rate into COPII vesicles (Sec23a/24d) budded in the presence of 10 mM 4-PBA in assay [2] was determined as 50 % reduction.
Regarding p24α2 (natural protein), in assay [1], the packaging efficiency into COPII vesicles budded with wild-type COPII (Sec23a/24d), amount in vesicle as % of protein present in starting permeabilized cells; CHO-LDLR G544V cells was 8.7% and the packaging efficiency into COPII vesicles budded with wild-type COPII (Sec23a/24d), amount in vesicle as % of protein present in starting permeabilized cells; wild-type CHO cells turned out to be 10.9%.
In assay [1], p24α3 (natural protein) gave a packaging efficiency into COPII vesicles budded with wild-type COPII (Sec23a/24d), amount in vesicle as % of protein present in starting permeabilized cells; CHO-LDLR G544V cells of 6.4% and a packaging efficiency into COPII vesicles budded with wild-type COPII (Sec23a/24d), amount in vesicle as % of protein present in starting permeabilized cells; wild-type CHO cells of 6.4%. Also, in assay [2], the reduction of the packaging rate into COPII vesicles (Sec23a/24d) budded in the presence of 10 mM 4-PBA was found to be 50 % reduction.
In assay [1], “p24β1 (from UniProt P49020 16-196) (natural protein)” registered a packaging efficiency into COPII vesicles budded with wild-type COPII (Sec23a/24d), amount in vesicle as % of protein present in starting permeabilized cells; CHO-LDLR G544V cells of 10.6%. Also, the reduction of the packaging rate into COPII vesicles (Sec23a/24d) budded in the presence of 10 mM 4-PBA in assay [2] turned out to be 50 % reduction.
Take p24δ1 (natural protein): in assay [1], the packaging efficiency into COPII vesicles budded with wild-type COPII (Sec23a/24d), amount in vesicle as % of protein present in starting permeabilized cells; CHO-LDLR G544V cells came to 7.7% and the packaging efficiency into COPII vesicles budded with wild-type COPII (Sec23a/24d), amount in vesicle as % of protein present in starting permeabilized cells; wild-type CHO cells came to 4.6%.
